Sequences and labels used below:
B1: DOMAIN_18693 (protein, listed as Camelus dromedarius)
chain: GQESVSFKDVTVDFTWDEWLQLTGMQRTLYRDVMLENYSHLVSVGCCITKPEVIFKLEQGEEPWPREGELPGRRDPDRSQE
B2: DOMAIN_17474 (protein, listed as Monodelphis domestica)
chain: QVPVTFEDLAVRFSAEEWHLLEEWQREFHRDVMRENYEMLVSLGTAQLLPLSAFLSLTEPQEDMGDNGCSDGEWERPGGGL
B3: DOMAIN_17180 (protein, listed as Zalophus californianus)
chain: FQDSVTFEDVAVRFSSGEWQCLTRAQRHLYADVMLENYGNMISVGFAVPKPPLISHLEQGAEPCVQDLQDGGFLSCSFPVS
B4: DOMAIN_17801 (protein, listed as Pongo sp.)
chain: EPGAVSFADVAVYFCREEWGCLRPAQRALYRDVMRETYGHLSALGIGGNKPALISWVEEEAELWDPAAQDPEVAKCQTEAD
B5: DOMAIN_17264 (protein)
chain: CEVSVSFEDVTVDFSREEWQHLDPAQRRLYRDVTLENYSHLCSVGYQVPKPEVIFKLEQGEGPWTLEEETPHQSCSDEDMG
modifications: Vicugna pacos
B6: DOMAIN_18670 (protein, listed as Neomonachus schauinslandi)
chain: B5 chain with C1L, E2Q, C42H, E68G, S74G, D79A, M80I
B7: DOMAIN_17775 (protein, listed as Camelus dromedarius)
chain: MPQGSVSFKDVTVDFTQEEWQQLDSAQKALYRDVMLENYCHFVSVGFHMTKPDMIHKLEQGKELWTTGRIFPSRSYLGESV
B8: DOMAIN_19388 (protein, listed as Physeter macrocephalus)
chain: MTFEDVAVEFTRWEWGQLDPTQKDVYREVMLENFKNLASLGFPMSKPYVICRLEEGEEPCILEREISTGAPADWERRRQAK
B9: DOMAIN_17689 (protein)
chain: MAFEDVAVYFSQEEWGLLDTAQRALYRRVMLENFTLVTSLGLSTSRPHVVIQLERGEEPWVPSGKDMTLARNTYRRLNAGE
modifications: Cercocebus atys
B10: DOMAIN_18646 (protein, listed as Monodelphis domestica)
chain: VKEVVTLQDVAVDFTWEEWRLLSPPQKELYREVMLENAQNLLSVGLPAPLEDVLSYLEQRKGPWMLEQKRLRSCCPGEIRL
B11: DOMAIN_18726 (protein, listed as Myotis davidii)
chain: PNALVTFQDVFVDFSPEELASLSAAQRRLHREVTLENYRNLVSLGYQFPRPDIITQLEEEESSAMEEDSNTKTGPDWETGP
B12: DOMAIN_18923 (protein, listed as Callithrix jacchus)
chain: ASGTLTFDDVALYFSEQEWEILEKWQKQMYKQEMKTNYETLDSLGYAFSKPDLITWMEKGRMLLISDQGRLHKTKRTAGPP
B13: DOMAIN_17497 (protein, listed as Monodelphis domestica)
chain: AQEVVSFKDVAVDFTREEWRLLSPPQKELYKEVMLENARNLLSVGLPAPSEEVISYLEQREAPWILEQEGLRNCCSEGEIR
B14: DOMAIN_18979 (protein, listed as Pongo sp.)
chain: CYQDSVTFDDVAVDFTQEEWTLLDSTQRSLYSDVMLENYKNLATVGGQIIKPSLISWLEQEESKTVQGGVLQGRKTQWRGT
B15: DOMAIN_17234 (protein)
chain: PENGVTFEDIALYFSWEEWKLLDEAQRRLYHDVMLENFALISSLGVWSGEENVEASFEQSVSVVMSQVRTSKEPSSSQKTH
modifications: Delphinapterus leucas
B16: DOMAIN_17534 (protein)
chain: SQGSVSFKDVTVDFTQEEWQQLDPAQKALYRDVMLENYCHFVSVGFHMTKPDMIRKLEQGEELWTQRIFPSYSYLAEDGKT
modifications: Cercocebus atys
B17: DOMAIN_18459 (protein, listed as Monodelphis domestica)
chain: GQEEVAFKDVAVDFTREEWRLLSPPQKELYKEVMLENIRNLLSVGLPAPPEDMISYLEQREAPWMLEQEGLRSYSPGEEIR
B18: DOMAIN_17548 (protein, listed as Neomonachus schauinslandi)
chain: VQGSMSFEDVIVEFTQDEWQYMSPAQRILYRDVMLENYSHLISVGYCTTKPEMIFKLEQGEEPWSLEEEFLNQRYPGYFSV
B19: DOMAIN_22375 (protein, listed as Tursiops truncatus)
chain: PQGCAISEDVFVYFSREEWVLLDEDQRLLYRDVMLENFALLASLGITSSRSYLVTQLEQGEEPWMPAQVDMTAATEKEAQK
B20: DOMAIN_21095 (protein, listed as Trichechus manatus)
chain: LKASVSFKDVAVELTQEEWQHMGPAQRTLYRDVMLENYSHLVSVGYCIFKPEVIFKLEQGEQPWFLEQEFSNQSYPEDYNI
B21: DOMAIN_22278 (protein, listed as Pteropus vampyrus)
chain: KPEDVSFAEVAVYFSLDEWGYLWPAQRALYRDVMRETYGHFGELGFPGPKPALISWMEQESEAWSPAAQDPEEGESVGGAV
B22: DOMAIN_22454 (protein, listed as Monodelphis domestica)
chain: AQEVVTFKDVAVDFTREEWCLLSPPQKELYKEVMLENAQNLLSVGLPGPPEDVISYLKQRKDPWMLEQEGLRSCCPEGEIR
B23: DOMAIN_22459 (protein, listed as Monodelphis domestica)
chain: SQGPVKFEDVAIYLWKEEWELMDSTQKRLYRQVMLETYENVLSVGTPHDKPAMIVHLEQGETAWSPALQRPGKEKGRLHGH
B24: DOMAIN_20336 (protein, listed as Panthera pardus)
chain: SQGTVSFKDVAVNFTQEEWQYLDLPQRDLYKDVMLENYTNLISVGYQTTKPSVIHKLEQGEEPWMVEREIPNWSYAEETWQ
B25: DOMAIN_21277 (protein, listed as Aotus trivirgatus)
chain: PQDLMTFDDVAVEFTQWEWGQLNPAQKDLYREVMLENFRNLTLLGLLVSKPYMICQLEEGGEPFMVNTEISVGAHSDWERR
B26: DOMAIN_19563 (protein, listed as Papio anubis)
chain: AQMLVTFKDVAVTFTQEEWRQLDLTQRTLYREVMLETCGLLVSLGHRVPKPELVHLLEHGQELWTVKRGLSDPTCAGDRTQ
B27: DOMAIN_20025 (protein, listed as Carlito syrichta)
chain: LQGSVSFKDVTVDFTQEEWHQLNPAQKALYRDVMLENYCHFISVGFHMTKPDMIRKLEQGEELWTERIFSRQSHLEEDGKA
B28: DOMAIN_22483 (protein, listed as Aotus trivirgatus)
chain: TQESLTLEDVAVEFSWEEWQLLDTAQKDLYRDVMVENYNHLVSLGYQTSKPDALSKLAHGQEPWMTDAKIQNKNCPGIRKV
B29: DOMAIN_19699 (protein, listed as Otolemur garnettii)
chain: B27 chain with H20Q, N23D, I42V, K56R, S70P, R71G, H74Y
B30: DOMAIN_21583 (protein, listed as Sarcophilus harrisii)
chain: ALESVTFQDVAVNFTHEEWGHLKPAQKDLYREVMMENYQNFVSLGLPFSKPHVISQLEKGEAPWITEKASLVPRVSCQDFF
B31: DOMAIN_22311 (protein, listed as Monodelphis domestica)
chain: AQEVVSFKDVAVDFTREEWRLLSPPQKELYKEVMLENARNLLSVGLSAPPEDMFSSLEQREAPWMLEKDDLRSCCPEGKMR
B32: DOMAIN_21909 (protein, listed as Suricata suricatta)
chain: AHHLVMFRDVAVDFSQDEWECLNSYQRNLYRDVILENYSNLVSVAGCSISKPDVITLLEQGREPWMVVRDERRRRTLDLES
B33: DOMAIN_143 (protein, listed as Pan paniscus)
chain: MAAMPLKAQYQEMVTFEDVAVHFTKTEWTGLSPAQRALYRSVMLENFGNLTALGYPVPKPALISLLEGGDMAWGLEAQDDP
B34: DOMAIN_92 (protein, listed as Pan paniscus)
chain: FGNLLGVPWAQGNSALPEGLLSFKDISMEFTWDEWQLLDSTQKYLYRDVILENYHNLISVGYHGTKPDLIFKLEQGEDPWI
B35: DOMAIN_31643 (protein, listed as Micrurus lemniscatus)
chain: FREVSVYFSEEEWSWLDPDQKALYWEVMLENHRNMASLGDDGQENKDSYELLQGITARDTMETSAIEMEVERYKEKQSDDWNQESSSCTDDSV

This is an account of results in patent US12551573B2, “Compositions and methods for the targeting of PCSK9” (Scribe Therapeutics Inc., priority 2022, dated 2026).

Substitutions are numbered along the chain they refer to.

The test system of the first assay is HBEGF locus. The class given is cell-based, human. The note with it: high-throughput screen of dXR repression of the HBEGF gene; abundance of each domain in the library before and after diphtheria toxin selection; HEK293T cells.
As to B1, the “Log2 (fold change)” value is on record as 3.0179.
Turning to B2, the “Log2 (fold change)” value is listed as 2.683.
B3: the “Log2 (fold change)” value was 2.945.
In the case of B4, the “Log2 (fold change)” value was found to be 2.9733.
Still for that read-out and setting: under B5 stands 3.0866; under B6, 3.1792.
On to B7, for which the “Log2 (fold change)” value turned out to be 2.6595.
With B8, the “Log2 (fold change)” value stood at 3.2831.
With B9, the “Log2 (fold change)” value is 3.6469.
As to B10, the “Log2 (fold change)” value turned out to be 2.4678.
Same read-out and setting: under B11 stands 2.9362; under B12, 2.2053; under B13, 2.8088.
Same read-out and setting: with B14 the figure was 2.0034; with B15, 2.0152.
B16: the “Log2 (fold change)” value is listed as 2.9374.
On to B17, for which the “Log2 (fold change)” value was 3.1352.
Take B18: the “Log2 (fold change)” value is on record as 2.8002.

Still in this assay, the particulars now being: high-throughput screen of dXR repression of the HBEGF gene; abundance of each domain in the library before vs after diphtheria toxin selection; listed domains met p-value <0.01 and log2(fold change) >2.
Turning to B19, the “Log2 (fold change)” value is 2.5484.
B20: the “Log2 (fold change)” value stood at 2.5003.
Take B21: the “Log2 (fold change)” value came to 3.3575.
Take B22: the “Log2 (fold change)” value came to 2.6042.
The same measure, in the same setting: with B23 the figure was 2.9261; with B24, 2.3293.
On the same count and under the same terms, under B25 stands 2.7115.
The same measure, in the same setting: under B26 stands 2.5522.
On to B27, for which the “Log2 (fold change)” value is listed as 2.2451.
Still for that read-out and setting: with B28 the figure was 2.1702.
On the same count and under the same terms, under B29 stands 2.8474; under B30, 3.1529; under B31, 2.9903.
B32: the “Log2 (fold change)” value is given as 3.2301.

Still in this assay, the particulars now being: high-throughput screen of dXR repression of the HBEGF gene; change in abundance of each domain in the library before and after diphtheria toxin selection.
Consider B33, for which the “Log2 (fold change)” value is recorded as 3.63.
The same measure, in the same setting: with B34 the figure was 2.1475; with B35, 3.8782.
